Values joined by “and” are separate entries in the source; they are usually repeats but may differ in a detail not shown here. Equal entries are not always repeated.
Legend:
Type in all cases: binding
[1] = Probe fluorescence ratio response to linolenic acid relative to ADIFAB2; settings: response relative to ADIFAB2
Method in brief: (§1)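 Each fatty acid's response was expressed relative to ADIFAB2, the rI-FABP-L72A probe, as ΔR/ΔRreference. ΔR is the change in the background-corrected two-wavelength intensity ratio R=Fλ1/Fλ2 from its analyte-free baseline R0. Emission was read near about 420-480 nm for unbound and about 495-580 nm for FFA-bound probe.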

[2] = Probe fluorescence ratio response to palmitic acid relative to ADIFAB2; settings: response relative to ADIFAB2
Method in brief: as §1

[3] = Probe fluorescence ratio response to linoleic acid relative to ADIFAB2; settings: response relative to ADIFAB2
Method in brief: as §1

[4] = Probe fluorescence ratio response to oleic acid relative to ADIFAB2; settings: response relative to ADIFAB2
Method in brief: as §1

[5] = Probe fluorescence ratio response to arachidonic acid relative to ADIFAB2; settings: arachidonic acid; response relative to ADIFAB2
Method in brief: as §1

B1: 14H, 72A (protein, listed as Rattus norvegicus)
chain: AFDGTWKVDRNENHEKFMEKMGINVVKRKLGAHDNLKLTITQEGNKFTVKESSNFRNIDVVFELGVDFAYSAADGTELTGTWTMEGNKLVGKFKRVDNGKELIAVREISGNELIQTYTYEGVEAKRIFKKE
modifications: PEPTIDE (1)...(131) wild-type rat intestinal fatty acid binding protein
- DR/DR LNA [1]: 0.42
- DR/DR PA [2]: 0.17
- DR/DR LA [3]: 0.45
- DR/DR OA [4]: 0.25
- DR/DR AA [5]: 0.37

B2: 14I, 72A (protein, listed as Rattus norvegicus)
chain: AFDGTWKVDRNENIEKFMEKMGINVVKRKLGAHDNLKLTITQEGNKFTVKESSNFRNIDVVFELGVDFAYSAADGTELTGTWTMEGNKLVGKFKRVDNGKELIAVREISGNELIQTYTYEGVEAKRIFKKE
modifications: PEPTIDE (1)...(131) wild-type rat intestinal fatty acid binding protein
- DR/DR LNA [1]: 0.90 and 0.899
- DR/DR PA [2]: 0.59 and 0.586
- DR/DR LA [3]: 0.79 and 0.792
- DR/DR OA [4]: 0.57 and 0.572
- DR/DR AA [5]: 0.57 and 0.572

B3: 14K, 72A (protein, listed as Rattus norvegicus)
chain: AFDGTWKVDRNENKEKFMEKMGINVVKRKLGAHDNLKLTITQEGNKFTVKESSNFRNIDVVFELGVDFAYSAADGTELTGTWTMEGNKLVGKFKRVDNGKELIAVREISGNELIQTYTYEGVEAKRIFKKE
modifications: PEPTIDE (1)...(131) wild-type rat intestinal fatty acid binding protein
- DR/DR LNA [1]: 0.92
- DR/DR PA [2]: 0.47
- DR/DR LA [3]: 1.06
- DR/DR OA [4]: 0.84
- DR/DR AA [5]: 1.08

B4: 14L, 72A (protein, listed as Rattus norvegicus)
chain: AFDGTWKVDRNENLEKFMEKMGINVVKRKLGAHDNLKLTITQEGNKFTVKESSNFRNIDVVFELGVDFAYSAADGTELTGTWTMEGNKLVGKFKRVDNGKELIAVREISGNELIQTYTYEGVEAKRIFKKE
modifications: PEPTIDE (1)...(131) wild-type rat intestinal fatty acid binding protein
- DR/DR LNA [1]: 0.93
- DR/DR PA [2]: 3.07
- DR/DR LA [3]: 0.87
- DR/DR OA [4]: 0.44
- DR/DR AA [5]: 0.89

B5: 14M, 72A (protein, listed as Rattus norvegicus)
chain: AFDGTWKVDRNENMEKFMEKMGINVVKRKLGAHDNLKLTITQEGNKFTVKESSNFRNIDVVFELGVDFAYSAADGTELTGTWTMEGNKLVGKFKRVDNGKELIAVREISGNELIQTYTYEGVEAKRIFKKE
modifications: PEPTIDE (1)...(131) wild-type rat intestinal fatty acid binding protein
- DR/DR LNA [1]: 0.68 and 0.684
- DR/DR PA [2]: 0.45 and 0.452
- DR/DR LA [3]: 0.68 and 0.685
- DR/DR OA [4]: 0.41 and 0.412
- DR/DR AA [5]: 0.62 and 0.619

B6: 14N, 72A (protein, listed as Rattus norvegicus)
chain: AFDGTWKVDRNENNEKFMEKMGINVVKRKLGAHDNLKLTITQEGNKFTVKESSNFRNIDVVFELGVDFAYSAADGTELTGTWTMEGNKLVGKFKRVDNGKELIAVREISGNELIQTYTYEGVEAKRIFKKE
modifications: PEPTIDE (1)...(131) wild-type rat intestinal fatty acid binding protein
- DR/DR LNA [1]: 0.53
- DR/DR PA [2]: 0.32
- DR/DR LA [3]: 0.49
- DR/DR OA [4]: 0.35
- DR/DR AA [5]: 0.42

B7: 14P, 72A (protein, listed as Rattus norvegicus)
chain: AFDGTWKVDRNENPEKFMEKMGINVVKRKLGAHDNLKLTITQEGNKFTVKESSNFRNIDVVFELGVDFAYSAADGTELTGTWTMEGNKLVGKFKRVDNGKELIAVREISGNELIQTYTYEGVEAKRIFKKE
modifications: PEPTIDE (1)...(131) wild-type rat intestinal fatty acid binding protein
- DR/DR LNA [1]: 0.64
- DR/DR PA [2]: 0.30
- DR/DR LA [3]: 0.64
- DR/DR OA [4]: 0.58
- DR/DR AA [5]: 0.55

B8: 14Q, 72A (protein, listed as Rattus norvegicus)
chain: AFDGTWKVDRNENQEKFMEKMGINVVKRKLGAHDNLKLTITQEGNKFTVKESSNFRNIDVVFELGVDFAYSAADGTELTGTWTMEGNKLVGKFKRVDNGKELIAVREISGNELIQTYTYEGVEAKRIFKKE
modifications: PEPTIDE (1)...(131) wild-type rat intestinal fatty acid binding protein
- DR/DR LNA [1]: 0.52
- DR/DR PA [2]: 0.33
- DR/DR LA [3]: 0.48
- DR/DR OA [4]: 0.29
- DR/DR AA [5]: 0.50

B9: 102K, 72A (protein, listed as Rattus norvegicus)
chain: AFDGTWKVDRNENYEKFMEKMGINVVKRKLGAHDNLKLTITQEGNKFTVKESSNFRNIDVVFELGVDFAYSAADGTELTGTWTMEGNKLVGKFKRVDNGKEKIAVREISGNELIQTYTYEGVEAKRIFKKE
modifications: PEPTIDE (1)...(131) wild-type rat intestinal fatty acid binding protein
- DR/DR LNA [1]: 0.51
- DR/DR PA [2]: 0.23
- DR/DR LA [3]: 0.55
- DR/DR OA [4]: 0.48
- DR/DR AA [5]: 0.47

B10: 14R, 72A (protein, listed as Rattus norvegicus)
chain: AFDGTWKVDRNENREKFMEKMGINVVKRKLGAHDNLKLTITQEGNKFTVKESSNFRNIDVVFELGVDFAYSAADGTELTGTWTMEGNKLVGKFKRVDNGKELIAVREISGNELIQTYTYEGVEAKRIFKKE
modifications: PEPTIDE (1)...(131) wild-type rat intestinal fatty acid binding protein
- DR/DR LNA [1]: 0.51
- DR/DR PA [2]: 0.26
- DR/DR LA [3]: 0.56
- DR/DR OA [4]: 0.26
- DR/DR AA [5]: 0.49

B11: 14S, 72A (protein, listed as Rattus norvegicus)
chain: AFDGTWKVDRNENSEKFMEKMGINVVKRKLGAHDNLKLTITQEGNKFTVKESSNFRNIDVVFELGVDFAYSAADGTELTGTWTMEGNKLVGKFKRVDNGKELIAVREISGNELIQTYTYEGVEAKRIFKKE
modifications: PEPTIDE (1)...(131) wild-type rat intestinal fatty acid binding protein
- DR/DR LNA [1]: 0.53
- DR/DR PA [2]: 0.27
- DR/DR LA [3]: 0.53
- DR/DR OA [4]: 0.33
- DR/DR AA [5]: 0.46

B12: 14T, 72A (protein, listed as Rattus norvegicus)
chain: AFDGTWKVDRNENTEKFMEKMGINVVKRKLGAHDNLKLTITQEGNKFTVKESSNFRNIDVVFELGVDFAYSAADGTELTGTWTMEGNKLVGKFKRVDNGKELIAVREISGNELIQTYTYEGVEAKRIFKKE
modifications: PEPTIDE (1)...(131) wild-type rat intestinal fatty acid binding protein
- DR/DR LNA [1]: 1.15
- DR/DR PA [2]: 0.36
- DR/DR LA [3]: 0.76
- DR/DR OA [4]: 0.56
- DR/DR AA [5]: 0.64

B13: 14V, 72A (protein, listed as Rattus norvegicus)
chain: AFDGTWKVDRNENVEKFMEKMGINVVKRKLGAHDNLKLTITQEGNKFTVKESSNFRNIDVVFELGVDFAYSAADGTELTGTWTMEGNKLVGKFKRVDNGKELIAVREISGNELIQTYTYEGVEAKRIFKKE
modifications: PEPTIDE (1)...(131) wild-type rat intestinal fatty acid binding protein
- DR/DR LNA [1]: 0.87 and 0.868
- DR/DR PA [2]: 0.43
- DR/DR LA [3]: 0.84 and 0.836
- DR/DR OA [4]: 0.51 and 0.513
- DR/DR AA [5]: 0.76 and 0.756

B14: 14W, 72A (protein, listed as Rattus norvegicus)
chain: AFDGTWKVDRNENWEKFMEKMGINVVKRKLGAHDNLKLTITQEGNKFTVKESSNFRNIDVVFELGVDFAYSAADGTELTGTWTMEGNKLVGKFKRVDNGKELIAVREISGNELIQTYTYEGVEAKRIFKKE
modifications: PEPTIDE (1)...(131) wild-type rat intestinal fatty acid binding protein
- DR/DR LNA [1]: 0.31
- DR/DR PA [2]: 0.23
- DR/DR LA [3]: 0.33
- DR/DR OA [4]: 0.26
- DR/DR AA [5]: 0.30

B15: 17A, 72A (protein, listed as Rattus norvegicus)
chain: AFDGTWKVDRNENYEKAMEKMGINVVKRKLGAHDNLKLTITQEGNKFTVKESSNFRNIDVVFELGVDFAYSAADGTELTGTWTMEGNKLVGKFKRVDNGKELIAVREISGNELIQTYTYEGVEAKRIFKKE
modifications: PEPTIDE (1)...(131) wild-type rat intestinal fatty acid binding protein
- DR/DR LNA [1]: 0.97
- DR/DR PA [2]: 0.24
- DR/DR LA [3]: 0.56
- DR/DR OA [4]: 0.38
- DR/DR AA [5]: 0.53

B16: 17C, 72A (protein, listed as Rattus norvegicus)
chain: AFDGTWKVDRNENYEKCMEKMGINVVKRKLGAHDNLKLTITQEGNKFTVKESSNFRNIDVVFELGVDFAYSAADGTELTGTWTMEGNKLVGKFKRVDNGKELIAVREISGNELIQTYTYEGVEAKRIFKKE
modifications: PEPTIDE (1)...(131) wild-type rat intestinal fatty acid binding protein
- DR/DR LNA [1]: 0.26
- DR/DR PA [2]: 0.10
- DR/DR LA [3]: 0.25
- DR/DR OA [4]: 0.31
- DR/DR AA [5]: 0.15

B17: 17D, 72A (protein, listed as Rattus norvegicus)
chain: AFDGTWKVDRNENYEKDMEKMGINVVKRKLGAHDNLKLTITQEGNKFTVKESSNFRNIDVVFELGVDFAYSAADGTELTGTWTMEGNKLVGKFKRVDNGKELIAVREISGNELIQTYTYEGVEAKRIFKKE
modifications: PEPTIDE (1)...(131) wild-type rat intestinal fatty acid binding protein
- DR/DR LNA [1]: 0.34
- DR/DR PA [2]: 0.16
- DR/DR LA [3]: 0.31
- DR/DR OA [4]: 0.26
- DR/DR AA [5]: 0.28
